Laboratory results reported in US20250066745A1, “MUTANTS AND USE THEREOF” (BGI SHENZHEN, priority 2021, published 2025).
Numbering of substitutions follows the chain as printed. Numbers in names are those of the source.

B1: K66N H79K P84A E102E S103I D123N L124M V138E K159N I179*: Gaussia luciferase mutant (protein)
chain: MGVKVLFALICIAVAEAKPTENNEDFNIVAVASNFATTDLDADRGKLPGKKLPLEVLKEMEANARNAGCTRGCLICLSKIKCTAKMKKFIPGRCHTYEGDKEIAQGGIGEAIVDIPEIPGFKNMEPMEQFIAQVDLCEDCTTGCLKGLANVQCSDLLKNWLPQRCATFASKIQGQVDKKGAGGD
modifications: SIGNAL (1)..(17)
notes: Gaussia luciferase mutant
B2: A42G Q152H T167G S170T G174N K178S A182Y G183A: Gaussia luciferase mutant (protein)
chain: MGVKVLFALICIAVAEAKPTENNEDFNIVAVASNFATTDLDGDRGKLPGKKLPLEVLKEMEANARKAGCTRGCLICLSHIKCTPKMKKFIPGRCHTYEGDKESAQGGIGEAIVDIPEIPGFKDLEPMEQFIAQVDLCVDCTTGCLKGLANVHCSDLLKKWLPQRCAGFATKIQNQVDSIKGYAGD
modifications: SIGNAL (1)..(17)
notes: Gaussia luciferase mutant
B3: N27Y V29G A30D V31L A32V S33V A36G T37D L40F Y97*: Gaussia luciferase mutant (protein)
chain: MGVKVLFALICIAVAEAKPTENNEDFYIGDLVVNFGDTDFDADRGKLPGKKLPLEVLKEMEANARKAGCTRGCLICLSHIKCTPKMKKFIPGRCHTEGDKESAQGGIGEAIVDIPEIPGFKDLEPMEQFIAQVDLCVDCTTGCLKGLANVQCSDLLKKWLPQRCATFASKIQGQVDKIKGAGGD
modifications: SIGNAL (1)..(17)
notes: Gaussia luciferase mutant
B4: K66N E102A S103T A104G E110G D123N L124M V138D K180: Gaussia luciferase mutant (protein)
chain: MGVKVLFALICIAVAEAKPTENNEDFNIVAVASNFATTDLDADRGKLPGKKLPLEVLKEMEANARNAGCTRGCLICLSHIKCTPKMKKFIPGRCHTYEGDKATGQGGIGGAIVDIPEIPGFKNMEPMEQFIAQVDLCDDCTTGCLKGLANVQCSDLLKKWLPQRCATFASKIQGQVDKIKGAGGD
B5: K66N P84L E102A S103I A104G E110P D123N L124M V138D: Gaussia luciferase mutant (protein)
chain: B4 chain with P84L, T103I, G110P
modifications: SIGNAL (1)..(17)
notes: Gaussia luciferase mutant
B6: K66N H79K P84K E102K S103I E110P L124M: Gaussia luciferase mutant (protein)
chain: B4 chain with H79K, P84K, A102K, T103I, G104A, G110P, N123D, D138V
modifications: SIGNAL (1)..(17)
notes: Gaussia luciferase mutant
B7: K66R P84A E102K A104G E110A L124M V138E: Gaussia luciferase mutant (protein)
chain: B4 chain with N66R, P84A, A102K, T103S, G110A, N123D, D138E
modifications: SIGNAL (1)..(17)
notes: Gaussia luciferase mutant
B8: K66N H79K E102D E110P L124M: Gaussia luciferase mutant (protein)
chain: B4 chain with H79K, A102D, T103S, G104A, G110P, N123D, D138V
modifications: SIGNAL (1)..(17)
notes: Gaussia luciferase mutant
B9: K66N E102D S103T E110G L124M V138E: Gaussia luciferase mutant (protein)
chain: B4 chain with A102D, G104A, N123D, D138E
modifications: SIGNAL (1)..(17)
notes: Gaussia luciferase mutant
B10: K66N P84A E102K S103I E110G L124M V138E: Gaussia luciferase mutant (protein)
chain: B4 chain with P84A, A102K, T103I, G104A, N123D, D138E
modifications: SIGNAL (1)..(17)
notes: Gaussia luciferase mutant
B11: K66R H79K P84K E102D S103I A104G L124M V138E: Gaussia luciferase mutant (protein)
chain: B4 chain with N66R, H79K, P84K, A102D, T103I, G110E, N123D, D138E
modifications: SIGNAL (1)..(17)
notes: Gaussia luciferase mutant
B12: I10T C11S A13D A15I E16R A17S: Gaussia luciferase mutant (protein)
chain: MGVKVLFALTSIDVIRSKPTENNEDFNIVAVASNFATTDLDADRGKLPGKKLPLEVLKEMEANARKAGCTRGCLICLSHIKCTPKMKKFIPGRCHTYEGDKESAQGGIGEAIVDIPEIPGFKDLEPMEQFIAQVDLCVDCTTGCLKGLANVQCSDLLKKWLPQRCATFASKIQGQVDKIKGAGGD
modifications: SIGNAL (1)..(17)
notes: Gaussia luciferase mutant
B13: N27D V29Y A30G V31L A32V S33K A36D L40V: Gaussia luciferase mutant (protein)
chain: MGVKVLFALICIAVAEAKPTENNEDFDIYGLVKNFDTTDVDADRGKLPGKKLPLEVLKEMEANARKAGCTRGCLICLSHIKCTPKMKKFIPGRCHTYEGDKESAQGGIGEAIVDIPEIPGFKDLEPMEQFIAQVDLCVDCTTGCLKGLANVQCSDLLKKWLPQRCATFASKIQGQVDKIKGAGGD
modifications: SIGNAL (1)..(17)
notes: Gaussia luciferase mutant

Experiments:
Assay type in all cases: biochemical
Parameters in all cases: key to Activity of mutant relative to wild-type Gaussia luciferase without the signal peptide: ratio of mutant luminescence intensity to wild-type Gaussia luciferase
[1] = Luminescence activity assay of purified Gaussia luciferase mutants on coelenterazine; conditions: Substrate CTZ (Table 16)
Outline: (§1)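 Readout: luminescence intensity, as ratio to signal-peptide-free wild-type enzyme. Enzyme 1 μg/mL, substrate 100 μM stock, 10 μL + 90 μL; buffer 50 mM Tris-HCl pH 8.0, 100 mM NaCl, 0.1% Tween-20.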

[2] = Luminescence activity assay of purified Gaussia luciferase mutants on fluoro-coelenterazine; conditions: Substrate f-CTZ (Table 16)
Description: In this Example, the protein concentration was determined with a BCA quantitative kit (Thermo Scientific™ Pierce™ BCA Protein Assay Kit) accurately. The purified luciferase obtained in Example 5 was diluted with diluent (50 mM Tris-HCl, pH 8.0, 100 mM NaCl, 0.1% (v/v) Tween-20) to 1 μg/mL. The diluted luciferase, taken for 10 μL, was moved into a black 96-well plate, then added with 90 μL of the substrates coelenterazine, fluoro-coelenterazine or coelenterazine derivative ZS2 (purchased from Biolab) which was diluted into 100 μM with the same diluent, and the luminescence intensity of the plate was read with a self-luminescence module of a microplate reader. The mutation site of the mutant, the measured luminescence intensity, the ratio of luminescence intensities of the advantageous mutants to the wild-type Gaussia luciferase without the signal peptide having the sequence shown in SEQ ID NO: 3 are shown in Table 15. The results of catalytic activity assay of the advantageous mutants relative to the wild-type Gaussia luciferase without the signal peptide having the sequence shown in SEQ ID NO: 3 on substrate coelenterazine are shown in FIG. 6. […] The results of catalytic activity assay of the advantageous mutants relative to the wild-type Gaussia luciferase without the signal peptide having the sequence shown in SEQ ID NO: 3 on substrate fluoro-coelenterazine are shown in FIG. 7.
The new mutant library constructed in Example 7 was screened and tested for substrate specificity. Expression and purification schemes were the same as that in Example 5, and the activity assay scheme was the same as that in Example 6. The respective catalytic activities of combinatorial mutants on coelenterazine, fluoro-coelenterazine or coelenterazine derivative ZS2, and coelenterazine derivative ZS26 (purchased from BIOLAB) were assayed, and comparisons among the substrate specificities of the combinatorial mutants were based on the ratios of catalytic activities on two corresponding substrates.

[3] = Luminescence activity assay of purified Gaussia luciferase mutants on coelenterazine derivative ZS2; conditions: Substrate ZS2 (Table 16)
Outline: as §1

Row | Molecule | Activity of mutant relative to wild-type Gaussia luciferase without the signal peptide [1] | Activity of mutant relative to wild-type Gaussia luciferase without the signal peptide [2] | Activity of mutant relative to wild-type Gaussia luciferase without the signal peptide [3]
1 | B1 | 0.000 | 0.009 | 0.001
2 | B2 | 0.568 | 0.657 | 0.001
3 | B3 | 0.000 | 0.009 | 0.001
4 | B4 | 0.945 | 6.874 | 1.880
5 | B5 | 0.513 | 5.207 | 0.041
6 | B6 | 0.755 | 1.728 | 1.118
7 | B7 | 1.073 | 10.315 | 2.637
8 | B8 | 1.554 | 0.404 | 0.751
9 | B9 | 0.134 | 0.794 | 0.471
10 | B10 | 0.654 | 0.896 | 0.620
11 | B11 | 0.407 | 0.857 | 0.459
12 | B12 | 0.071 | 0.086 | 0.116
13 | B13 | 0.146 | 0.155 | 0.120
